Measurements from the supplement of paper PMC9170038.

Experiments:
MS2 coat protein [1] = assay: apparent KD of MS2 coat protein; designed switch direction (-1 OFF switch, 1 ON switch): -1; higher = weaker reporter binding; details: Eterna round: R98
Experimental: (§1)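 RNA-MaP: designed FMN/MS2 RNA switches (84 nt design region) are transcribed on-chip within common flanks and titrated with SNAP-549-labelled MS2 coat protein (about 1-3000 nM) in 100 mM Tris pH 7.5, 80 mM KCl, 4 mM MgCl2, without or with 200 uM FMN. Median apparent KD per design; activation ratio = KD,OFF / KD,ON.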

MS2 coat protein [2] = assay: apparent KD of MS2 coat protein; designed switch direction (-1 OFF switch, 1 ON switch): 1; higher = weaker reporter binding; details: Eterna round: R98
Experimental: as §1

MS2 coat protein [3] = assay: apparent KD of MS2 coat protein; higher = weaker reporter binding; details: Eterna round: R101
Experimental: as §1

Row | Sequence | apparent KD of MS2 coat protein (MS2 coat protein [2]; input ligand: FMN 200 uM) | apparent KD of MS2 coat protein (MS2 coat protein [2]; input ligand: none) | apparent KD of MS2 coat protein (MS2 coat protein [3]; input ligand: FMN 200 uM) | apparent KD of MS2 coat protein (MS2 coat protein [3]; input ligand: none) | other results
1 | GCGCGCGCGCGCGCGCGCGCGCACAUGAGGAUCACCCAUGUAUAGGAUAUCGAUUGUUGUUGAUUCGAGAAGGGUAGCGCGCGC [Exclusion NG3] |  |  |  |  | apparent KD of MS2 coat protein (MS2 coat protein [1]; input ligand: FMN 200 uM): 44.1 nM; apparent KD of MS2 coat protein (MS2 coat protein [1]; input ligand: none): 39.4 nM
2 | CAUAUAUGGUGAGGAUAUGCAGAGGAUCACCCUGUAGAAGGCAUCAGGGUAGAAGGUGCAAGGAUCACCUGUAAGGAUAUAUCC [pwkr2 ssNG1 DX.28] | 979 nM | 864 nM |  |  | 
3 | GACGAAUUCUUAGGAUAUCGAGUGGAUAACACUCGAGAAGGAAGAUAUACCUGAGGAUCACCCAGGUUAAACUGGACGUCAAUA [Same State NG1 - A3C, U17G Submission 8C] | 53.6 nM | 205 nM |  |  | 
4 | CAUGUAUGGUGAGGAUAUGCAAAGGAUCACCUUGUAGAAGGCAUCAGGUAGAAGGUGCAGAGGAUCACCCUGUAAGGAUAUAUC [pwkr2 ssNG1 DX.23] | 72 nM | 249 nM |  |  | 
5 | GGAGACCUCACAGGAUAUGCUGGACUUUGUCCAGCAGAAGGGUGAACAUGAGGAUCACCCAUGUAGGUCUCCAAAAUAUUUAAU [Denovo 50] | 989 nM | 100 nM |  |  | 
6 | AAUAAUCAGGUAGGAUAUGCUCAGGAAUACUGAGCAGAAGGACUAGAAACCUGAGGAUCACCCAGGUAACUGGAAUAAUAAUAA [Same State NG1 - A3C, U17G Submission 6A] | 53.6 nM | 78.3 nM |  |  | 
7 | CCGUUGCAAAUAAAACAUGAGGAUCACCCAUGUGAGUCUCAUGAGGAUAUGCAGGUCAAAGACUUGCAGAAGGCAUGGCGACGG [Mat - Same State NG 3 - JL Mod - D67] | 118 nM | 1520 nM |  |  | 
8 | GACGGAUUCUUAGGAUAUGCUCAGGAUAACUGAGCAGAAGGAAGAAUAACCUGAGGAUCACCCAGGUAAUACUGAACGUCAAUA [Same State NG1 - A3C, U17G Submission 9B] | 20.7 nM | 64.1 nM |  |  | 
9 | AUCUAUCGGUCAGGAUAUUCACAUGAGGAUCACCCAUGUGAGCCUCGGCCAAAGUGAACGCAUGUGAAGAAGGGACGGCAAAAC [Atceen] |  |  |  |  | apparent KD of MS2 coat protein (MS2 coat protein [1]; input ligand: FMN 200 uM): 33.4 nM; apparent KD of MS2 coat protein (MS2 coat protein [1]; input ligand: none): 27.8 nM
10 | AUGAAGAGGCAAGGAUAUCGAGUGCUGGGCCUAUACAUGAGGAUCACCCAUGUCCUGGCAGGACGUGAGAAGGUGUAUCGAAUA [Ussotemaa] | 455 nM | 244 nM |  |  | 
11 | UAACAGCGAAGAUAAUAAUGAAUACAUGAGGAUCACCCAUGUAAGGAUAUCGUCAGGAAUACUGACGAGAAGGUACAUACGCUG [Exclusion NG 3/17-B2] |  |  |  |  | apparent KD of MS2 coat protein (MS2 coat protein [1]; input ligand: FMN 200 uM): 23.2 nM; apparent KD of MS2 coat protein (MS2 coat protein [1]; input ligand: none): 16.7 nM
12 | AGUUGCAAACAGAACAUGAGGAUCACCCAUGUGCUCUCGUGUAAGGAUAUACAUUCGUAUGGAAAGUAGAAGGUACUAAUUAUG [JR_SSNG3_Sub93] | 66.3 nM | 65.1 nM |  |  | 
13 | AAAUAAAAUAUAGGAUAUGGAAACAUGAGGAUCACCCAUGUAAGAUAAGAUAAAUAAUGAUAUAGCCAGAAGGAUAAAAUAUAA [LRO005_SS NG 2] | 32.7 nM | 28.3 nM |  |  | 
14 | GAAUAAUAGAUCCAAUUUAUCUACAUGAGGAUCACCCAUGUGCAGGAUAUGCUAAAAUUUAAUAAGCAGAAGGGCAAGAACGGC [JR_ExcNG3_Sub016] |  |  |  |  | apparent KD of MS2 coat protein (MS2 coat protein [1]; input ligand: FMN 200 uM): 374 nM; apparent KD of MS2 coat protein (MS2 coat protein [1]; input ligand: none): 104 nM
15 | GCAGAAGGUGCGGAGGAUCACCCUGUAAGGAUAUGCAUUAGCAAGGAUAUACAGAGGAUCACCCUGUAGAAGGUGCACUUCAAA [pwkr2 ssNG3 DX.6] | 779 nM | 3160 nM |  |  | 
16 | CCAGAUAUAUGAGGAUAUCGAGUGGAAUACACUCGAGAAGGUAUGUGAAAACAUGAGGAUCACCCAUGUGAUUAAUAAUCUGGA [SameState NG1 #1] | 22.4 nM | 16.8 nM |  |  | 
17 | CUGUGGGCCAUAGGAUAUGCGCAGAAUUAGCAAGCAGAAGGGUGGAUCGGACAAUAAUAACUACAUGAGGAUCACCCAUGUGCU [Lelegeza] | 55.5 nM | 139 nM |  |  | 

Row | Sequence | apparent KD of MS2 coat protein (MS2 coat protein [2]; input ligand: FMN 200 uM) | apparent KD of MS2 coat protein (MS2 coat protein [2]; input ligand: none) | apparent KD of MS2 coat protein (MS2 coat protein [3]; input ligand: FMN 200 uM) | apparent KD of MS2 coat protein (MS2 coat protein [3]; input ligand: none) | other results
18 | CGCUAUGACAUGAGGAUCACCCAUGUAUACAUGGGAAUGACGUAGGAUAUGCAGAAGAUUAAAGUGCAGAAGGACGGCUUAGCG [JR #DistanceClose #Static #NP SSNG3 Sub064] (puzzle (switch architecture): Same State NG 3) |  |  | 1020 nM | 830 nM | 
19 | AUAUAAAAUAUAGGAUAUGGAAACAUGAGGAUCACCCAUGUAUGAUAAGAUAAAUAAUGAUAUAGCCAGAAGGAUACAAUAUAA [LRO008_SS NG 2] | 47.5 nM | 38.2 nM |  |  | 
20 | AAUAAUCUUUAAGGAUAUCAGUGGCAAAGCCACUGAGAAGGUGAGGAUCACCCAUCUACGUGACCCUGGAAACAGGGUCACGAA [#SharedSequence - ExNG1-12] (puzzle (switch architecture): Exclusion NG 1) |  |  | 84.6 nM | 66.7 nM | 
21 | GGAAUAAAUGCAGGAUAUACGUGGAAAGCCCUCAACAUGAGGAUCACCCAUGUAGAAGGGCAUCUCCCGACCGAAGCGGAUCUC [Laisraus] (puzzle (switch architecture): Small Loop Exclusion NG 1) |  |  | 4.83 nM |  | 
22 | AGGUAUACUUAGAAGGGCUCCAGCAAAGCUGGAGCAGGAUAUGAGGAUCACCCAUAUCACCUGACGGUCGAAACGACCGUCAGG [#SharedSequence - IExNG1: 8-1] (puzzle (switch architecture): Inverted Exclusion NG 1) |  |  | 26.8 nM | 13.2 nM | 
23 | UAUUCUUUGUUAGGAUAUGGGCCCACCCACCCACAAAGUGGGUGGGUGGGCCCAGAAGGAACAUGAGGAUCACCCAUGUAGGAA [#Aaaddddeeeeeeennnniiiinneeeee!] (puzzle (switch architecture): Small Loop Exclusion NG 1) |  |  | 53.1 nM | 11.7 nM | 
24 | ACACGUCGUGAGAAGGAGGAUCACCCUUUCGAAAGAAAUAGCCACCGUGAAAACGGUGGCAAAUCUUAGGAUAUCACGACGUGA [#SharedSequence - IExNG2: 5] (puzzle (switch architecture): Inverted Exclusion NG 2) |  |  | 189 nM | 189 nM | 
25 | AGAGCUGCUCAGAAGGAGGAUCACCCUUUCGAAAGAAAGACGGAGGCUGAAAAGCCUCCGAAAUUCUAGGAUAUGAGCAGCUCA [#SharedSequence - IExNG2: 1] (puzzle (switch architecture): Inverted Exclusion NG 2) |  |  | 411 nM | 204 nM | 
26 | UUAUUAUAUGUAGGAUAUGCAUAUUAUUACUGUGCAGAAGGACAUGAGGAUCACCCAUGUAUAUUAUUAUUAUAUAUUAUAUAU (puzzle (switch architecture): Exclusion NG 1) |  |  | 20.6 nM | 17.2 nM | 
27 | AGAAACUACGAGAAGGACAUGUGGUCCUUCGGGAAAAUGAGGAUCACCCAUGUAGGAUAUCGUAGUUUCAGGAUCGUGAGAUCA [salish99_ISLExNG1_022 #HINGE] (puzzle (switch architecture): Inverted Small Loop Exclusion NG 1) |  |  | 51.1 nM | 69.2 nM | 
28 | UAUUCUUUGUUAGGAUAUGGGCCCACCCACCCACAAAGUGGGUGGGUGGGCCCAGAAGGAACAUGAGGAUCACCCAUGUAGGCC [#Aaaddddeeeeeeennnniiiinneeeee!] (puzzle (switch architecture): Small Loop Exclusion NG 1) |  |  | 88.5 nM | 6.16 nM | 
29 | ACACAUGAGGAUCACCCAUGUAGCUGGCGUCUGCGCCAGCCACAGGAUAUACGGUAACACAAACCGUAGAAGGGUGAUAAACAC [Inerre] (puzzle (switch architecture): Same State NG 3) |  |  | 54.5 nM | 113 nM | 
30 | UAUAACGAAAGAGGAUAUAUCGGCCGUCUACGGAUAGAAGGCUUUCGCUAUGGCACUGAUGAUCUACAUGAGGAUCACCCAUGU [EternaBot731] (puzzle (switch architecture): Exclusion NG 1) |  |  | 7.18 nM |  | 
31 | CGAACCACUUAGGUACCACACAUGAGGAUCACCCAUGUAUCACAGGAUAUGCAUGAUAUAUUCAGGCAGAAGGGUGAUCUUACC [Esananti] | 265 nM | 24.7 nM |  |  | 
32 | UCACUCACGUUAGGAUAUGGAUCGGAAAACGAUCCAGAAGGAACCUGCAAACAAGAGGAUCACCCUUGUUCCAAUAACGAGUGA [SameSame 6 - Jieux - Same State NG 1] | 40.9 nM | 51.2 nM |  |  | 
33 | GAGCAGGUAAAUAAACUCAAUUACAUGAGGAUCACCCAUGUAUAGGAUAUCGUCAGGAAUACUGACGAGAAGGAUACAUCCUGC [Exclusion NG 3/14-A2] |  |  |  |  | apparent KD of MS2 coat protein (MS2 coat protein [1]; input ligand: FMN 200 uM): 59.2 nM; apparent KD of MS2 coat protein (MS2 coat protein [1]; input ligand: none): 19.7 nM
